Sequences and labels used below:
B1: Azoarcus group I ribozyme (parent)
chain: GUGCCUUGCGCCGGGAAACCACGCAAGGGAUGGUGUCAAAUUCGGCGAAACCUAAGCGCCCGCCCGGGCGUAUGGCAACGCCGAGCCAAGCUUCGGCGCCUGCGCCGAUGAAGGUGUAGAGACUAGACGGCACCCACCUAAGGCAAACGCUAUGGUGAAGGCAUAGUCCAGGGAGUGGCGAAAGUCACACAAACCGG

Variants of B1 are the subject of the data set. As to the kind of experiment: reverse-splicing fitness (ratio to wild type); higher = more active; in vitro selection; Mg2+ level not given. Put shortly: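 An in vitro group I ribozyme library with randomized positions was T7-transcribed and gel-purified. In triplicate, 10 pmol RNA in EPPS pH 7.5 was reacted with 50 pmoles of a 30-nt RNA substrate for 1 h at 37 °C across several added MgCl2 levels (1–48 mM), then stopped with EDTA. Products were reverse transcribed from a substrate-complementary primer, PCR-amplified and sequenced (HiSeq 4000). Fitness is a variant's read proportion after selection over that before, normalised to wild type.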
For the variant GUGCCUUGCGCCGGGAAACCACGCAAGGGAUGGUGUCAAAUUCGGCGAAACCUAAGCGCCCGCCCGGGCGUAUGGCAACGCGGAGCCAAGCUUCGGCGCCUGCGCCGAUGGAGGUGUAGAGACUAGACGGCACCCACCUAAGGCCAACGGUAUGGUGAAGGCAUAGUCGAGGGAGAGGCGAAAGUCACACAAACCGG, the reverse-splicing fitness was 0.0101.

In the case of GUGCCUUGCGCCGGGAAACCACGCAAGGGAUGGUGUCAAAUUCGGCGAAACCUAAGCGCCCGCCCGGGCGUAUGGCAACGCCGAGCCAAGCUUCGGCGCCUGCGCCGAUGAAGGUGUAGCGACUAGACGGCACCCACCUAAGGCAAACGUUAUGGUGAAGGCAUAGUCCAGGGAGCGGCGAAAGUCACACAAACCGG, the reverse-splicing fitness is 0.596.

On to GUGCCUUGCGCCGGGAAACCACGCAAGGGAUGGUGUCAAAUUCGGCGAAACCUAAGCGCCCGCCCGGGCGUAUGGCAACGCAGAGCCAAGCUUCGGCGCCUGCGCCGAUGUAGGUGUAGCGACUAGACGGCACCCACCUAAGGCCAACGUUAUGGUGAAGGCAUAGUCCAGGGAGCGGCGAAAGUCACACAAACCGG, for which the reverse-splicing fitness is 0.0198.

With GUGCCUUGCGCCGGGAAACCACGCAAGGGAUGGUGUCAAAUUCGGCGAAACCUAAGCGCCCGCCCGGGCGUAUGGCAACGCGGAGCCAAGCUUCGGCGCCUGCGCCGAUGGAGGUGUAGGGACUAGACGGCACCCACCUAAGGCUAACGAUAUGGUGAAGGCAUAGUCUAGGGAGUGGCGAAAGUCACACAAACCGG, the reverse-splicing fitness stood at 0.00794.

Take GUGCCUUGCGCCGGGAAACCACGCAAGGGAUGGUGUCAAAUUCGGCGAAACCUAAGCGCCCGCCCGGGCGUAUGGCAACGCGGAGCCAAGCUUCGGCGCCUGCGCCGAUGAAGGUGUAGUGACUAGACGGCACCCACCUAAGGCUAACGAUAUGGUGAAGGCAUAGUCUAGGGAGUGGCGAAAGUCACACAAACCGG: the reverse-splicing fitness amounted to 0.00221.

For GUGCCUUGCGCCGGGAAACCACGCAAGGGAUGGUGUCAAAUUCGGCGAAACCUAAGCGCCCGCCCGGGCGUAUGGCAACGCAGAGCCAAGCUUCGGCGCCUGCGCCGAUGGAGGUGUAGCGACUAGACGGCACCCACCUAAGGCGAACGUUAUGGUGAAGGCAUAGUCUAGGGAGGGGCGAAAGUCACACAAACCGG, the reverse-splicing fitness was found to be 0.00671.

Turning to GUGCCUUGCGCCGGGAAACCACGCAAGGGAUGGUGUCAAAUUCGGCGAAACCUAAGCGCCCGCCCGGGCGUAUGGCAACGCCGAGCCAAGCUUCGGCGCCUGCGCCGAUGAAGGUGUAGGGACUAGACGGCACCCACCUAAGGCAAACGUUAUGGUGAAGGCAUAGUCUAGGGAGUGGCGAAAGUCACACAAACCGG, the reverse-splicing fitness amounted to 0.284.

As for GUGCCUUGCGCCGGGAAACCACGCAAGGGAUGGUGUCAAAUUCGGCGAAACCUAAGCGCCCGCCCGGGCGUAUGGCAACGCAGAGCCAAGCUUCGGCGCCUGCGCCGAUGGAGGUGUAGCGACUAGACGGCACCCACCUAAGGCCAACGGUAUGGUGAAGGCAUAGUCAAGGGAGUGGCGAAAGUCACACAAACCGG, the reverse-splicing fitness came out at 0.0102.

As for GUGCCUUGCGCCGGGAAACCACGCAAGGGAUGGUGUCAAAUUCGGCGAAACCUAAGCGCCCGCCCGGGCGUAUGGCAACGCUGAGCCAAGCUUCGGCGCCUGCGCCGAUGUAGGUGUAGUGACUAGACGGCACCCACCUAAGGCGAACGGUAUGGUGAAGGCAUAGUCGAGGGAGGGGCGAAAGUCACACAAACCGG, the reverse-splicing fitness is 0.00365.

With GUGCCUUGCGCCGGGAAACCACGCAAGGGAUGGUGUCAAAUUCGGCGAAACCUAAGCGCCCGCCCGGGCGUAUGGCAACGCAGAGCCAAGCUUCGGCGCCUGCGCCGAUGUAGGUGUAGCGACUAGACGGCACCCACCUAAGGCAAACGCUAUGGUGAAGGCAUAGUCCAGGGAGCGGCGAAAGUCACACAAACCGG, the reverse-splicing fitness was 0.0279.

Turning to GUGCCUUGCGCCGGGAAACCACGCAAGGGAUGGUGUCAAAUUCGGCGAAACCUAAGCGCCCGCCCGGGCGUAUGGCAACGCCGAGCCAAGCUUCGGCGCCUGCGCCGAUGGAGGUGUAGAGACUAGACGGCACCCACCUAAGGCUAACGCUAUGGUGAAGGCAUAGUCAAGGGAGGGGCGAAAGUCACACAAACCGG, the reverse-splicing fitness was determined as 0.00483.

GUGCCUUGCGCCGGGAAACCACGCAAGGGAUGGUGUCAAAUUCGGCGAAACCUAAGCGCCCGCCCGGGCGUAUGGCAACGCUGAGCCAAGCUUCGGCGCCUGCGCCGAUGUAGGUGUAGAGACUAGACGGCACCCACCUAAGGCAAACGAUAUGGUGAAGGCAUAGUCUAGGGAGUGGCGAAAGUCACACAAACCGG: the reverse-splicing fitness was 0.0133.

With GUGCCUUGCGCCGGGAAACCACGCAAGGGAUGGUGUCAAAUUCGGCGAAACCUAAGCGCCCGCCCGGGCGUAUGGCAACGCCGAGCCAAGCUUCGGCGCCUGCGCCGAUGCAGGUGUAGUGACUAGACGGCACCCACCUAAGGCCAACGGUAUGGUGAAGGCAUAGUCGAGGGAGGGGCGAAAGUCACACAAACCGG, the reverse-splicing fitness turned out to be 0.00227.

For the variant GUGCCUUGCGCCGGGAAACCACGCAAGGGAUGGUGUCAAAUUCGGCGAAACCUAAGCGCCCGCCCGGGCGUAUGGCAACGCCGAGCCAAGCUUCGGCGCCUGCGCCGAUGCAGGUGUAGGGACUAGACGGCACCCACCUAAGGCGAACGGUAUGGUGAAGGCAUAGUCUAGGGAGGGGCGAAAGUCACACAAACCGG, the reverse-splicing fitness was 0.00619.

As to GUGCCUUGCGCCGGGAAACCACGCAAGGGAUGGUGUCAAAUUCGGCGAAACCUAAGCGCCCGCCCGGGCGUAUGGCAACGCUGAGCCAAGCUUCGGCGCCUGCGCCGAUGUAGGUGUAGAGACUAGACGGCACCCACCUAAGGCUAACGGUAUGGUGAAGGCAUAGUCCAGGGAGUGGCGAAAGUCACACAAACCGG, the reverse-splicing fitness came out at 0.028.

With GUGCCUUGCGCCGGGAAACCACGCAAGGGAUGGUGUCAAAUUCGGCGAAACCUAAGCGCCCGCCCGGGCGUAUGGCAACGCGGAGCCAAGCUUCGGCGCCUGCGCCGAUGGAGGUGUAGAGACUAGACGGCACCCACCUAAGGCCAACGAUAUGGUGAAGGCAUAGUCUAGGGAGAGGCGAAAGUCACACAAACCGG, the reverse-splicing fitness was found to be 0.0123.

On to GUGCCUUGCGCCGGGAAACCACGCAAGGGAUGGUGUCAAAUUCGGCGAAACCUAAGCGCCCGCCCGGGCGUAUGGCAACGCCGAGCCAAGCUUCGGCGCCUGCGCCGAUGCAGGUGUAGGGACUAGACGGCACCCACCUAAGGCUAACGCUAUGGUGAAGGCAUAGUCCAGGGAGCGGCGAAAGUCACACAAACCGG, for which the reverse-splicing fitness amounted to 0.0406.

For GUGCCUUGCGCCGGGAAACCACGCAAGGGAUGGUGUCAAAUUCGGCGAAACCUAAGCGCCCGCCCGGGCGUAUGGCAACGCCGAGCCAAGCUUCGGCGCCUGCGCCGAUGUAGGUGUAGAGACUAGACGGCACCCACCUAAGGCGAACGCUAUGGUGAAGGCAUAGUCUAGGGAGUGGCGAAAGUCACACAAACCGG, the reverse-splicing fitness worked out at 0.111.

On to GUGCCUUGCGCCGGGAAACCACGCAAGGGAUGGUGUCAAAUUCGGCGAAACCUAAGCGCCCGCCCGGGCGUAUGGCAACGCUGAGCCAAGCUUCGGCGCCUGCGCCGAUGAAGGUGUAGCGACUAGACGGCACCCACCUAAGGCUAACGUUAUGGUGAAGGCAUAGUCGAGGGAGAGGCGAAAGUCACACAAACCGG, for which the reverse-splicing fitness turned out to be 0.00914.

As for GUGCCUUGCGCCGGGAAACCACGCAAGGGAUGGUGUCAAAUUCGGCGAAACCUAAGCGCCCGCCCGGGCGUAUGGCAACGCGGAGCCAAGCUUCGGCGCCUGCGCCGAUGUAGGUGUAGGGACUAGACGGCACCCACCUAAGGCGAACGCUAUGGUGAAGGCAUAGUCUAGGGAGGGGCGAAAGUCACACAAACCGG, the reverse-splicing fitness amounted to 0.00501.

For the variant GUGCCUUGCGCCGGGAAACCACGCAAGGGAUGGUGUCAAAUUCGGCGAAACCUAAGCGCCCGCCCGGGCGUAUGGCAACGCAGAGCCAAGCUUCGGCGCCUGCGCCGAUGUAGGUGUAGCGACUAGACGGCACCCACCUAAGGCCAACGGUAUGGUGAAGGCAUAGUCUAGGGAGAGGCGAAAGUCACACAAACCGG, the reverse-splicing fitness came to 0.00683.

On to GUGCCUUGCGCCGGGAAACCACGCAAGGGAUGGUGUCAAAUUCGGCGAAACCUAAGCGCCCGCCCGGGCGUAUGGCAACGCGGAGCCAAGCUUCGGCGCCUGCGCCGAUGCAGGUGUAGCGACUAGACGGCACCCACCUAAGGCGAACGCUAUGGUGAAGGCAUAGUCCAGGGAGGGGCGAAAGUCACACAAACCGG, for which the reverse-splicing fitness came to 0.00761.

For GUGCCUUGCGCCGGGAAACCACGCAAGGGAUGGUGUCAAAUUCGGCGAAACCUAAGCGCCCGCCCGGGCGUAUGGCAACGCAGAGCCAAGCUUCGGCGCCUGCGCCGAUGCAGGUGUAGGGACUAGACGGCACCCACCUAAGGCUAACGUUAUGGUGAAGGCAUAGUCCAGGGAGGGGCGAAAGUCACACAAACCGG, the reverse-splicing fitness came to 0.00527.

As to GUGCCUUGCGCCGGGAAACCACGCAAGGGAUGGUGUCAAAUUCGGCGAAACCUAAGCGCCCGCCCGGGCGUAUGGCAACGCUGAGCCAAGCUUCGGCGCCUGCGCCGAUGCAGGUGUAGUGACUAGACGGCACCCACCUAAGGCUAACGAUAUGGUGAAGGCAUAGUCGAGGGAGAGGCGAAAGUCACACAAACCGG, the reverse-splicing fitness worked out at 0.00239.

For GUGCCUUGCGCCGGGAAACCACGCAAGGGAUGGUGUCAAAUUCGGCGAAACCUAAGCGCCCGCCCGGGCGUAUGGCAACGCAGAGCCAAGCUUCGGCGCCUGCGCCGAUGAAGGUGUAGUGACUAGACGGCACCCACCUAAGGCGAACGAUAUGGUGAAGGCAUAGUCAAGGGAGAGGCGAAAGUCACACAAACCGG, the reverse-splicing fitness came to 0.0062.

Regarding GUGCCUUGCGCCGGGAAACCACGCAAGGGAUGGUGUCAAAUUCGGCGAAACCUAAGCGCCCGCCCGGGCGUAUGGCAACGCCGAGCCAAGCUUCGGCGCCUGCGCCGAUGGAGGUGUAGCGACUAGACGGCACCCACCUAAGGCUAACGCUAUGGUGAAGGCAUAGUCCAGGGAGGGGCGAAAGUCACACAAACCGG, the reverse-splicing fitness turned out to be 0.172.

On to GUGCCUUGCGCCGGGAAACCACGCAAGGGAUGGUGUCAAAUUCGGCGAAACCUAAGCGCCCGCCCGGGCGUAUGGCAACGCAGAGCCAAGCUUCGGCGCCUGCGCCGAUGGAGGUGUAGUGACUAGACGGCACCCACCUAAGGCUAACGGUAUGGUGAAGGCAUAGUCAAGGGAGGGGCGAAAGUCACACAAACCGG, for which the reverse-splicing fitness turned out to be 0.00276.

Turning to GUGCCUUGCGCCGGGAAACCACGCAAGGGAUGGUGUCAAAUUCGGCGAAACCUAAGCGCCCGCCCGGGCGUAUGGCAACGCUGAGCCAAGCUUCGGCGCCUGCGCCGAUGGAGGUGUAGUGACUAGACGGCACCCACCUAAGGCCAACGGUAUGGUGAAGGCAUAGUCCAGGGAGUGGCGAAAGUCACACAAACCGG, the reverse-splicing fitness stood at 0.00671.

On to GUGCCUUGCGCCGGGAAACCACGCAAGGGAUGGUGUCAAAUUCGGCGAAACCUAAGCGCCCGCCCGGGCGUAUGGCAACGCAGAGCCAAGCUUCGGCGCCUGCGCCGAUGAAGGUGUAGUGACUAGACGGCACCCACCUAAGGCUAACGGUAUGGUGAAGGCAUAGUCGAGGGAGGGGCGAAAGUCACACAAACCGG, for which the reverse-splicing fitness was found to be 0.00188.

Take GUGCCUUGCGCCGGGAAACCACGCAAGGGAUGGUGUCAAAUUCGGCGAAACCUAAGCGCCCGCCCGGGCGUAUGGCAACGCGGAGCCAAGCUUCGGCGCCUGCGCCGAUGCAGGUGUAGAGACUAGACGGCACCCACCUAAGGCAAACGUUAUGGUGAAGGCAUAGUCCAGGGAGUGGCGAAAGUCACACAAACCGG: the reverse-splicing fitness worked out at 0.143.

Values taken from the RNAGym collection of RNA variant scans (doi:10.1093/molbev/msab373).
